Results from publication PMC11481497.

Biological target: His-CaDpb3 (Dpb3 subunit of DNA polymerase epsilon of C. albicans, wild type) (C. albicans)
Test: ITC; 20 µM wild-type or mutant CaDpb3 in the sample cell, 100 µM CaDpb4 injected from the syringe (25 injections of 1.5 µL); 25°C; 20 mM HEPES pH 7.4, 150 mM NaCl; one-site binding model

**Q.** Which results are given for “His-CaDpb4 (Dpb4 subunit of DNA polymerase epsilon of C. albicans, wild type) (from UniProt A0A1D8PG40 1-261) (natural protein)”?
**A.** Kd: 55 µM; stoichiometry N: 1
